Legend:
Experiment in all cases: holdup assay
Parameters in all cases: key: below the threshold = too weak to quantify, mostly under pKd 3.1 to 4
Settings in all cases: plain residues with an end cap or a label only (N-terminal biotin on a linker: ado-ado)
FRMPD2_3, Q68DX3 = target: FRMPD2_3, Q68DX3
SNTA1, Q13424 = target: T1, SNTA1, Q13424
T1 sequence (Q13424 82-180, limits assumed, looked up): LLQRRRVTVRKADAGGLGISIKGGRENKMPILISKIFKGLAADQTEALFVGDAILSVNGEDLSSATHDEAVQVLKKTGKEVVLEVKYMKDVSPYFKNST

NHERF3_1, Q5T2W1 = target: T2, NHERF3_1, Q5T2W1
T2 sequence (Q5T2W1 4-100, limits assumed, looked up): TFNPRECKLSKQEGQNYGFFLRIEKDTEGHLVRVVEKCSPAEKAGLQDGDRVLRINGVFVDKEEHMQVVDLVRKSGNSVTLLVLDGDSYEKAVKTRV

DFNB31_1, Q9P202 = target: T3, DFNB31_1, Q9P202
T3 sequence (Q9P202 135-233, limits assumed, looked up): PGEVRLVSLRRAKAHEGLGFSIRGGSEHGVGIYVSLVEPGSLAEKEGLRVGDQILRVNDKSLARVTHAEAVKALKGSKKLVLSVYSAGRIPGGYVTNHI

DVL3, Q92997 = target: T4, DVL3, Q92997
T4 sequence (Q92997 244-331, limits assumed, looked up): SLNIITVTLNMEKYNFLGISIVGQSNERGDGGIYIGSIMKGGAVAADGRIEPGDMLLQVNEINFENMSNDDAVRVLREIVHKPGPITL

LIN7B, Q9HAP6 = target: T5, LIN7B, Q9HAP6
T5 sequence (Q9HAP6 88-185, limits assumed, looked up): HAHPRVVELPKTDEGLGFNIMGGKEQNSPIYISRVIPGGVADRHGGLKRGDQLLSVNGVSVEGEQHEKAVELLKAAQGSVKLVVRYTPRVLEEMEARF

PDLIM1, O00151 = target: PDLIM1, O00151
PDLIM1, O00151, sequence (O00151 1-87): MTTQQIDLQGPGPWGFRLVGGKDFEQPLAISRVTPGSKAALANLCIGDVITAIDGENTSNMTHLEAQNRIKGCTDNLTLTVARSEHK

Inadl_8, Q8NI35 = target: Inadl_8, Q8NI35
Inadl_8, Q8NI35, sequence (Q8NI35 1425-1530): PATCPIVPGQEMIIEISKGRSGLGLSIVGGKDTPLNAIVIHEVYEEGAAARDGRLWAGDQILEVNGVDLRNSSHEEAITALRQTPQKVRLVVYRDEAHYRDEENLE

TIAM2, Q8IVF5 = target: T6, TIAM2, Q8IVF5
T6 sequence (Q8IVF5 885-986, limits assumed, looked up): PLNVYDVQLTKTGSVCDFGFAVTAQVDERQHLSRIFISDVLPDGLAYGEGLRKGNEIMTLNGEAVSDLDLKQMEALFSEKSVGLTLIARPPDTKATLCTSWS

RAPGEF6, Q8TEU7 = target: T7, RAPGEF6, Q8TEU7
T7 sequence (Q8TEU7 525-625, limits assumed, looked up): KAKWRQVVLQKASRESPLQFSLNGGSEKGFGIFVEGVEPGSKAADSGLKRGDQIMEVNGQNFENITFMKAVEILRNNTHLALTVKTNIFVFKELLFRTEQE

NOS1, P29475 = target: NOS1, P29475
NOS1, P29475, sequence (P29475 9-101): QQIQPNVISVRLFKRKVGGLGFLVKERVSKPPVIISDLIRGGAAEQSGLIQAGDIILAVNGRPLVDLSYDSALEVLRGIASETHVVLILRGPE

LIMK2, P53671 = target: LIMK2, P53671
LIMK2, P53671, sequence (P53671 143-248): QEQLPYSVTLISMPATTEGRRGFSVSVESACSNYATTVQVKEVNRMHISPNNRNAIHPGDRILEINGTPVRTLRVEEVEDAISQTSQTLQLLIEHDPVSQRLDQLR

IL16_1, Q14005 = target: IL16_1, Q14005
IL16_1, Q14005, sequence (Q14005 210-306): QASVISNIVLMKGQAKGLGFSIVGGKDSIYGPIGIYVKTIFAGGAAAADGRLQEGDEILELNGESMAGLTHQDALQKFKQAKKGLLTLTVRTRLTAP

DFNB31_2, Q9P202 = target: T8, DFNB31_2, Q9P202
T8 sequence (Q9P202 274-371, limits assumed, looked up): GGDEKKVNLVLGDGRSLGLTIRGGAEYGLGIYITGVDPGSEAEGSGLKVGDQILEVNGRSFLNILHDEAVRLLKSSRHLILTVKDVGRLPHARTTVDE

GRIP2_5, Q9C0E4 = target: GRIP2_5, Q9C0E4
GRIP2_5, Q9C0E4, sequence (Q9C0E4 544-642): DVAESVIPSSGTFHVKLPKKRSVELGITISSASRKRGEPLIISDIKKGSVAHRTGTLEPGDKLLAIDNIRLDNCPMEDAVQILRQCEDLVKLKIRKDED

MPDZ_10, O75970 = target: T9, MPDZ_10, O75970
T9 sequence (O75970 1624-1722, limits assumed, looked up): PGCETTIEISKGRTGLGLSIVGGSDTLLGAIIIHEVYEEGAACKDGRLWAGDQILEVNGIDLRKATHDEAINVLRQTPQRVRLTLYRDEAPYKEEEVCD

DLG3_3, Q92796 = target: T10, DLG3_3, Q92796
T10 sequence (Q92796 374-475, limits assumed, looked up): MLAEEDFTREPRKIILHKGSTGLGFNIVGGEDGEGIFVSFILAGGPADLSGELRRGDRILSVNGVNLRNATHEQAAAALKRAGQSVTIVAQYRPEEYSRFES

GORASP2, Q9H8Y8 = target: GORASP2, Q9H8Y8
DLG5_1, Q8TDM6 = target: DLG5_1, Q8TDM6
DLG5_1, Q8TDM6, sequence (Q8TDM6 617-713): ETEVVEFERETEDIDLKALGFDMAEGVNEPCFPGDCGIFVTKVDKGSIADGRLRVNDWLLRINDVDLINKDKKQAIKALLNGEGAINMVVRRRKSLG

SNTG2, Q9NY99 = target: T11, SNTG2, Q9NY99
T11 sequence (Q9NY99 68-166, limits assumed, looked up): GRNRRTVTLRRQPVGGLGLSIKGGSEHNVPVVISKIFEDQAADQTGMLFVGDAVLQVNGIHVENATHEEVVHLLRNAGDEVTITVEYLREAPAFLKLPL

PARD3_3, Q8TEW0 = target: PARD3_3, Q8TEW0
PARD3_3, Q8TEW0, sequence (Q8TEW0 582-685): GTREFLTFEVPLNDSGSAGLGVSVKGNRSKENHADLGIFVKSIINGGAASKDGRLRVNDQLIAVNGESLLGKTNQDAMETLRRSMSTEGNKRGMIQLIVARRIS

IL16_4, Q14005 = target: IL16_4, Q14005
IL16_4, Q14005, sequence (Q14005 1229-1329): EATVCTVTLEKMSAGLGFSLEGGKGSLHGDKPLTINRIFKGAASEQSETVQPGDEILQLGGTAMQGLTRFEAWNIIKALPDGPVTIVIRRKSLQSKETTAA

HTRA4, P83105 = target: T12, HTRA4, P83105
T12 sequence (P83105 378-476, limits assumed, looked up): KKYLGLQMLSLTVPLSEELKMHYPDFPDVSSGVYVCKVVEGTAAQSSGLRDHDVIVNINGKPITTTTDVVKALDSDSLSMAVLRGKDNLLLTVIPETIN

SCRIB_1, Q14160 = target: SCRIB_1, Q14160
SCRIB_1, Q14160, sequence (Q14160 718-814): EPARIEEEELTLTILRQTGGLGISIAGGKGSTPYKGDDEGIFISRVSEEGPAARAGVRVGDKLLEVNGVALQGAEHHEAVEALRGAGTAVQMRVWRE

SNTG1, Q9NSN8 = target: T13, SNTG1, Q9NSN8
T13 sequence (Q9NSN8 52-150, limits assumed, looked up): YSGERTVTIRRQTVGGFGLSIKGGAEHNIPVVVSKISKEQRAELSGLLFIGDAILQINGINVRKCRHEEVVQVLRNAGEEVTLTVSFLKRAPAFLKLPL

FRMPD2_3, Q68DX3, sequence (Q68DX3 1073-1166): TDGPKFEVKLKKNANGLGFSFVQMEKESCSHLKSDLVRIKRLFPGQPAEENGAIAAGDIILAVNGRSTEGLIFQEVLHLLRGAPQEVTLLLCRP

Binder | pKd (FRMPD2_3, Q68DX3) | pKd (SNTA1, Q13424) | pKd (NHERF3_1, Q5T2W1) | pKd (DFNB31_1, Q9P202) | pKd (DVL3, Q92997) | pKd (LIN7B, Q9HAP6) | pKd (PDLIM1, O00151) | pKd (Inadl_8, Q8NI35) | pKd (TIAM2, Q8IVF5) | pKd (RAPGEF6, Q8TEU7) | pKd (NOS1, P29475) | pKd (LIMK2, P53671) | pKd (IL16_1, Q14005) | pKd (DFNB31_2, Q9P202) | pKd (GRIP2_5, Q9C0E4) | pKd (MPDZ_10, O75970) | pKd (DLG3_3, Q92796) | pKd (GORASP2, Q9H8Y8) | pKd (DLG5_1, Q8TDM6) | pKd (SNTG2, Q9NY99) | other results
QKNKDREYYV [NRXN3, Q9HDB5] | 4.38 | 3.8 | 4.61 | below the threshold | 4.02 | below the threshold | below the threshold | 3.48 | 4.41 | below the threshold | 4.11 | below the threshold | 3.72 | below the threshold | below the threshold | below the threshold | below the threshold | 4.67 | below the threshold | 3.5 | pKd (PARD3_3, Q8TEW0): 4.59; pKd (IL16_4, Q14005): below the threshold; pKd (HTRA4, P83105): below the threshold; pKd (SCRIB_1, Q14160): below the threshold; pKd (SNTG1, Q9NSN8): 3.58
KAEEKPPSKV [SCN4B, Q8IWT1] | below the threshold | below the threshold | below the threshold | 3.57 | below the threshold | below the threshold | below the threshold | 3.98 | below the threshold | below the threshold | below the threshold | below the threshold | below the threshold | below the threshold | below the threshold | 3.71 | below the threshold | below the threshold | below the threshold | below the threshold | pKd (PARD3_3, Q8TEW0): below the threshold; pKd (IL16_4, Q14005): 3.65; pKd (HTRA4, P83105): 3.93; pKd (SCRIB_1, Q14160): below the threshold; pKd (SNTG1, Q9NSN8): below the threshold
HDDYFYHDEL [RCN2, Q14257] | below the threshold | 3.6 | 4.34 | below the threshold | below the threshold | below the threshold | 3.83 | below the threshold | below the threshold | below the threshold | below the threshold | below the threshold | below the threshold | below the threshold | below the threshold | below the threshold | below the threshold | below the threshold | below the threshold | below the threshold | pKd (PARD3_3, Q8TEW0): 3.96; pKd (IL16_4, Q14005): below the threshold; pKd (HTRA4, P83105): below the threshold; pKd (SCRIB_1, Q14160): below the threshold; pKd (SNTG1, Q9NSN8): below the threshold
THREVKFTSL [CD46, P15529] | below the threshold | 4.17 | 5.18 | 3.82 | below the threshold | 3.88 | below the threshold | 3.53 | 4.06 | below the threshold | 3.75 | below the threshold | below the threshold | 4.28 | below the threshold | below the threshold | 4.21 | below the threshold | below the threshold | 4.05 | pKd (PARD3_3, Q8TEW0): below the threshold; pKd (IL16_4, Q14005): 3.88; pKd (HTRA4, P83105): below the threshold; pKd (SCRIB_1, Q14160): 4.95; pKd (SNTG1, Q9NSN8): below the threshold
PSDSVGKDVF [EGLN1, Q9GZT9] | below the threshold | below the threshold | below the threshold | 3.49 | below the threshold | 3.55 | below the threshold | below the threshold | 4.05 | below the threshold | below the threshold | below the threshold | below the threshold | below the threshold | below the threshold | below the threshold | below the threshold | below the threshold | below the threshold | below the threshold | pKd (PARD3_3, Q8TEW0): below the threshold; pKd (IL16_4, Q14005): 3.63; pKd (HTRA4, P83105): below the threshold; pKd (SCRIB_1, Q14160): below the threshold; pKd (SNTG1, Q9NSN8): below the threshold
KKTPVSRSHL [SLC22A3, O75751] | below the threshold | 3.53 | 4.39 | below the threshold | below the threshold | below the threshold | below the threshold | below the threshold | below the threshold | below the threshold | below the threshold | below the threshold | below the threshold | below the threshold | below the threshold | below the threshold | below the threshold | below the threshold | below the threshold | 3.48 | pKd (PARD3_3, Q8TEW0): below the threshold; pKd (IL16_4, Q14005): below the threshold; pKd (HTRA4, P83105): 3.81; pKd (SCRIB_1, Q14160): 3.91; pKd (SNTG1, Q9NSN8): below the threshold

Source: article PMC9482650, “Quantitative fragmentomics allow affinity mapping of interactomes” (Nature Communications, 2022)
